Experimental data reported in US20210388087A1 (Chugai, published 2021).
Positions count from the first letter of the chain named. Numbers in names are those of the source. Values belong to the binder of their own block, whether it stands above or below them.

Target: T1, Human CD3eg linker (human)
T1 construct: Single chain: epsilon and gamma subunits of human CD3 joined by a 29-mer linker, Flag-tag at the C-terminus; also called recombinant human CD3
T1 chain: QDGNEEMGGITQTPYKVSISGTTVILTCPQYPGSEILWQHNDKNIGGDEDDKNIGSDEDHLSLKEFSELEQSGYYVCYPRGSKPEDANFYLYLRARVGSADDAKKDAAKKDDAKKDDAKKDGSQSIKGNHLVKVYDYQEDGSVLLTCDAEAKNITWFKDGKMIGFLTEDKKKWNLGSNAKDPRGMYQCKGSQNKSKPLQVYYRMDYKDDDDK
Experiment: Biacore SPR, vs template H183/L072

- fold change of affinity: 0.6 fold
B1: H183/L072 VH Y55E (antibody, name in Kabat numbering, V domains shown)
VH: QVQLVESGGGLVQPGRSLRLSCAASGFTFSNAWMHWVRQAPGKGLEWVAQIKDKGNAEAAYYAPSVKGRFTISRDDSKNSIYLQMNSLKTEDTAVYYCHYVHYASASTVLPAFGVDAWGQGTTVTVSS
VL: DIVMTQSPLSLPVTPGEPASISCQASQELVHMNRNTYLHWYQQKPGQAPRLLIYKVSNRFPGVPDRFSGSGSGTDFTLKISRVEAEDVGVYYCAQGTSVPFTFGQGTKLEIK

- fold change of affinity: 0.7 fold
B2: H183/L072 VH Y55H (antibody, name in Kabat numbering, V domains shown)
VH: B1 VH with E58H
VL: B1 VL

- fold change of affinity: 0.3 fold
B3: H183/L072 VH Y58V (antibody, name in Kabat numbering, V domains shown)
VH: B1 VH with E58Y, Y61V
VL: B1 VL

- fold change of affinity: 0.3 fold
B4: H183/L072 VH Y58G (antibody, name in Kabat numbering, V domains shown)
VH: B1 VH with E58Y, Y61G
VL: B1 VL

- fold change of affinity: 1.1 fold
B5: H183/L072 VH Y59D (antibody, name in Kabat numbering, V domains shown)
VH: B1 VH with E58Y, Y62D
VL: B1 VL

- fold change of affinity: 1 fold
B6: H183/L072 VH Y59A (antibody, name in Kabat numbering, V domains shown)
VH: B1 VH with E58Y, Y62A
VL: B1 VL

- fold change of affinity: 0.3 fold
B7: H183/L072 VH Y58I (antibody, name in Kabat numbering, V domains shown)
VH: B1 VH with E58Y, Y61I
VL: B1 VL

- fold change of affinity: 1 fold
B8: H183/L072 VH Y59L (antibody, name in Kabat numbering, V domains shown)
VH: B1 VH with E58Y, Y62L
VL: B1 VL

- fold change of affinity: 1.1 fold
B9: H183/L072 VH Y59E (antibody, name in Kabat numbering, V domains shown)
VH: B1 VH with E58Y, Y62E
VL: B1 VL

- fold change of affinity: 0 fold
B10: H183/L072 VH Y58W (antibody, name in Kabat numbering, V domains shown)
VH: B1 VH with E58Y, Y61W
VL: B1 VL

- fold change of affinity: 0.2 fold
B11: H183/L072 VH Y58T (antibody, name in Kabat numbering, V domains shown)
VH: B1 VH with E58Y, Y61T
VL: B1 VL

- fold change of affinity: 0.8 fold
B12: H183/L072 VH Y55F (antibody, name in Kabat numbering, V domains shown)
VH: B1 VH with E58F
VL: B1 VL

- fold change of affinity: 0.4 fold
B13: H183/L072 VH Y55R (antibody, name in Kabat numbering, V domains shown)
VH: B1 VH with E58R
VL: B1 VL

- fold change of affinity: 0.5 fold
B14: H183/L072 VH Y58R (antibody, name in Kabat numbering, V domains shown)
VH: B1 VH with E58Y, Y61R
VL: B1 VL

- fold change of affinity: 0.7 fold
B15: H183/L072 VH Y55N (antibody, name in Kabat numbering, V domains shown)
VH: B1 VH with E58N
VL: B1 VL

- fold change of affinity: 0 fold
B16: H183/L072 VH Y58D (antibody, name in Kabat numbering, V domains shown)
VH: B1 VH with E58Y, Y61D
VL: B1 VL

- fold change of affinity: 0.3 fold
B17: H183/L072 VH Y55V (antibody, name in Kabat numbering, V domains shown)
VH: B1 VH with E58V
VL: B1 VL

- fold change of affinity: 0.2 fold
B18: H183/L072 VH Y58E (antibody, name in Kabat numbering, V domains shown)
VH: B1 VH with E58Y, Y61E
VL: B1 VL

- fold change of affinity: 0.6 fold
B19: H183/L072 VH Y55M (antibody, name in Kabat numbering, V domains shown)
VH: B1 VH with E58M
VL: B1 VL

- fold change of affinity: 0.4 fold
B20: H183/L072 VH Y58M (antibody, name in Kabat numbering, V domains shown)
VH: B1 VH with E58Y, Y61M
VL: B1 VL

- fold change of affinity: 0.5 fold
B21: H183/L072 VH Y58N (antibody, name in Kabat numbering, V domains shown)
VH: B1 VH with E58Y, Y61N
VL: B1 VL

- fold change of affinity: 0.5 fold
B22: H183/L072 VH Y55W (antibody, name in Kabat numbering, V domains shown)
VH: B1 VH with E58W
VL: B1 VL

- fold change of affinity: 0.6 fold
B23: H183/L072 VH Y58K (antibody, name in Kabat numbering, V domains shown)
VH: B1 VH with E58Y, Y61K
VL: B1 VL

- fold change of affinity: 1 fold
B24: H183/L072 VH Y59M (antibody, name in Kabat numbering, V domains shown)
VH: B1 VH with E58Y, Y62M
VL: B1 VL

- fold change of affinity: 0 fold
B25: H183/L072 VH Y55I (antibody, name in Kabat numbering, V domains shown)
VH: B1 VH with E58I
VL: B1 VL

- fold change of affinity: 0 fold
B26: H183/L072 VH Y55S (antibody, name in Kabat numbering, V domains shown)
VH: B1 VH with E58S
VL: B1 VL

- fold change of affinity: 0.4 fold
B27: H183/L072 VH Y58L (antibody, name in Kabat numbering, V domains shown)
VH: B1 VH with E58Y, Y61L
VL: B1 VL

- fold change of affinity: 1.2 fold
B28: H183/L072 VH Y59N (antibody, name in Kabat numbering, V domains shown)
VH: B1 VH with E58Y, Y62N
VL: B1 VL

- fold change of affinity: 1.1 fold
B29: H183/L072 VH Y59G (antibody, name in Kabat numbering, V domains shown)
VH: B1 VH with E58Y, Y62G
VL: B1 VL

- fold change of affinity: 0.6 fold
B30: H183/L072 VH Y58A (antibody, name in Kabat numbering, V domains shown)
VH: B1 VH with E58Y, Y61A
VL: B1 VL

- fold change of affinity: 0.5 fold
B31: H183/L072 VH Y55Q (antibody, name in Kabat numbering, V domains shown)
VH: B1 VH with E58Q
VL: B1 VL

- fold change of affinity: 0.6 fold
B32: H183/L072 VH Y59F (antibody, name in Kabat numbering, V domains shown)
VH: B1 VH with E58Y, Y62F
VL: B1 VL

- fold change of affinity: 0.4 fold
B33: H183/L072 VH Y58S (antibody, name in Kabat numbering, V domains shown)
VH: B1 VH with E58Y, Y61S
VL: B1 VL

- fold change of affinity: 0.5 fold
B34: H183/L072 VH Y55L (antibody, name in Kabat numbering, V domains shown)
VH: B1 VH with E58L
VL: B1 VL

- fold change of affinity: 0.3 fold
B35: H183/L072 VH Y58Q (antibody, name in Kabat numbering, V domains shown)
VH: B1 VH with E58Y, Y61Q
VL: B1 VL

- fold change of affinity: 0.9 fold
B36: H183/L072 VH Y59I (antibody, name in Kabat numbering, V domains shown)
VH: B1 VH with E58Y, Y62I
VL: B1 VL

- fold change of affinity: 1.4 fold
B37: H183/L072 VH Y59H (antibody, name in Kabat numbering, V domains shown)
VH: B1 VH with E58Y, Y62H
VL: B1 VL

- fold change of affinity: 0.6 fold
B38: H183/L072 VH Y58H (antibody, name in Kabat numbering, V domains shown)
VH: B1 VH with E58Y, Y61H
VL: B1 VL

- fold change of affinity: 1.3 fold
B39: H183/L072 VH Y59K (antibody, name in Kabat numbering, V domains shown)
VH: B1 VH with E58Y, Y62K
VL: B1 VL

- fold change of affinity: 0.6 fold
B40: H183/L072 VH Y55G (antibody, name in Kabat numbering, V domains shown)
VH: B1 VH with E58G
VL: B1 VL

- fold change of affinity: 1.4 fold
B41: H183/L072 VH Y58F (antibody, name in Kabat numbering, V domains shown)
VH: B1 VH with E58Y, Y61F
VL: B1 VL

- fold change of affinity: 0.4 fold
B42: H183/L072 VH Y55K (antibody, name in Kabat numbering, V domains shown)
VH: B1 VH with E58K
VL: B1 VL

- fold change of affinity: 0 fold
B43: H183/L072 VH Y55T (antibody, name in Kabat numbering, V domains shown)
VH: B1 VH with E58T
VL: B1 VL

- fold change of affinity: 0.5 fold
B44: H183/L072 VH Y58P (antibody, name in Kabat numbering, V domains shown)
VH: B1 VH with E58Y, Y61P
VL: B1 VL

- fold change of affinity: 0 fold
B45: H183/L072 VH Y55P (antibody, name in Kabat numbering, V domains shown)
VH: B1 VH with E58P
VL: B1 VL
